Laboratory results as given in patent US20180071366A1.
Numbered stars: 1 amine (or outer) side, 2 acyl side, 3 side chain; on linkers, the order of the positions; unused ones are H or OH. Bridge positions count the residues as written; N and C are the ends. Square brackets hold non-standard residues; d marks the D form. * marks the point of attachment. C20 diacid = O=C(O)CCCCCCCCCCCCCCCCCCC(=O)*; γGlu = O=C(O)[C@H](CCC(=O)[*:2])N[*:1]; Hyp = O=C(O)[C@@H]1C[C@@H](O)CN1; NMeI = CC[C@H](C)[C@H](NC)C(=O)O; Aad = N[C@@H](CCCC(=O)O)C(=O)O; hLys = NCCCCC[C@H](N)C(=O)O; Orn = NCCC[C@H](N)C(=O)O; Dab = NCC[C@H](N)C(=O)O; Sar = CNCC(=O)O

Key:
[1] = target: recombinant human amylin 3 receptor (hAMYR3) (human), P30988; assay: cell-based or functional assay
[2] = target: recombinant human calcitonin receptor (hCT-R) (human), P30988; assay: cell-based or functional assay
Chain of recombinant human calcitonin receptor (hCT-R) (human), P30988 (P30988 25-474): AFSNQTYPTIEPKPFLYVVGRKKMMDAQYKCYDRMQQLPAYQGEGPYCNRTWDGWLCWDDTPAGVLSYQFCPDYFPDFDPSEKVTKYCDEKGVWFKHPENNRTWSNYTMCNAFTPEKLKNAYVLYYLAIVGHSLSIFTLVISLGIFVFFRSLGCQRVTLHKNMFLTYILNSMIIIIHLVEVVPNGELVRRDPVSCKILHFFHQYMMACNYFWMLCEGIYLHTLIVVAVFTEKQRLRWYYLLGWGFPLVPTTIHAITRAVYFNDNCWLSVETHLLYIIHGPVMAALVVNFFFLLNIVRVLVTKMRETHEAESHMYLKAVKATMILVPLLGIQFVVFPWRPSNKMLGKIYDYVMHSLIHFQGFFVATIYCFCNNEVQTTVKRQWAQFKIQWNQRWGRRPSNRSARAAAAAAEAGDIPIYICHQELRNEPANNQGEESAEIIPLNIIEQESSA

Chain of recombinant human amylin 3 receptor (hAMYR3) (human), P30988 (P30988 25-474, chain 1 of 2): as the sequence (P30988 25-474) above
Chain of recombinant human amylin 3 receptor (hAMYR3) (human), P30988 (O60896 24-148, chain 2 of 2, further chain): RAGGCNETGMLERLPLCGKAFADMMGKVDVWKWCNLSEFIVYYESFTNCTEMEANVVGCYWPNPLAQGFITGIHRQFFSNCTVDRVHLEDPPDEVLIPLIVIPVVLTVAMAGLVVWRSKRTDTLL

Binder	hAMYR3 EC50 [nM] (cAMP formation, 1321N1 cells expressing hAMYR3) [1]	hCT-R EC50 [nM] (cAMP formation, 1321N1 cells expressing hCT-R) [2]
{C20 diacid-γGlu}-RDGTATKATERLAHFLQRSSF[Sar]A[NMeI]PSSTEVGSNT[Hyp]-NH2 (lactam 2-7; SMILES CC[C@H](C)[C@@H](C(=O)N1CCC[C@H]1C(=O)N[C@@H](CO)C(=O)N[C@@H](CO)C(=O)N[C@H](C(=O)N[C@@H](CCC(=O)O)C(=O)N[C@H](C(=O)NCC(=O)N[C@@H](CO)C(=O)N[C@@H](CC(N)=O)C(=O)N[C@H](C(=O)N1C[C@H](O)C[C@H]1C(N)=O)[C@@H](C)O)C(C)C)[C@@H](C)O)N(C)C(=O)[C@H](C)NC(=O)CN(C)C(=O)[C@H](Cc1ccccc1)NC(=O)[C@H](CO)NC(=O)[C@H](CO)NC(=O)[C@H](CCCNC(=N)N)NC(=O)[C@H](CCC(N)=O)NC(=O)[C@H](CC(C)C)NC(=O)[C@H](Cc1ccccc1)NC(=O)[C@H](Cc1c[nH]cn1)NC(=O)[C@H](C)NC(=O)[C@H](CC(C)C)NC(=O)[C@H](CCCNC(=N)N)NC(=O)[C@H](CCC(=O)O)NC(=O)[C@@H](NC(=O)[C@H](C)NC(=O)[C@@H]1CCCCNC(=O)C[C@H](NC(=O)[C@H](CCCNC(=N)N)NC(=O)CC[C@H](NC(=O)CCCCCCCCCCCCCCCCCCC(=O)O)C(=O)O)C(=O)NCC(=O)N[C@@H]([C@@H](C)O)C(=O)N[C@@H](C)C(=O)N[C@@H]([C@@H](C)O)C(=O)N1)[C@@H](C)O) [Compound 17]	0.025	0.058
{C20 diacid-γGlu}-RDGTATKATQRLAHFLQRSSF[Sar]A[NMeI]LSSTEVGSNT[Hyp]-NH2 (lactam 2-7; SMILES CC[C@H](C)[C@@H](C(=O)N[C@@H](CC(C)C)C(=O)N[C@@H](CO)C(=O)N[C@@H](CO)C(=O)N[C@H](C(=O)N[C@@H](CCC(=O)O)C(=O)N[C@H](C(=O)NCC(=O)N[C@@H](CO)C(=O)N[C@@H](CC(N)=O)C(=O)N[C@H](C(=O)N1C[C@H](O)C[C@H]1C(N)=O)[C@@H](C)O)C(C)C)[C@@H](C)O)N(C)C(=O)[C@H](C)NC(=O)CN(C)C(=O)[C@H](Cc1ccccc1)NC(=O)[C@H](CO)NC(=O)[C@H](CO)NC(=O)[C@H](CCCNC(=N)N)NC(=O)[C@H](CCC(N)=O)NC(=O)[C@H](CC(C)C)NC(=O)[C@H](Cc1ccccc1)NC(=O)[C@H](Cc1c[nH]cn1)NC(=O)[C@H](C)NC(=O)[C@H](CC(C)C)NC(=O)[C@H](CCCNC(=N)N)NC(=O)[C@H](CCC(N)=O)NC(=O)[C@@H](NC(=O)[C@H](C)NC(=O)[C@@H]1CCCCNC(=O)C[C@H](NC(=O)[C@H](CCCNC(=N)N)NC(=O)CC[C@H](NC(=O)CCCCCCCCCCCCCCCCCCC(=O)O)C(=O)O)C(=O)NCC(=O)N[C@@H]([C@@H](C)O)C(=O)N[C@@H](C)C(=O)N[C@@H]([C@@H](C)O)C(=O)N1)[C@@H](C)O) [Compound 16]	0.035	0.043
{C20 diacid-γGlu}-RDGTATKATQRLAHFLQRSSF[Sar]A[NMeI]PSSTEVGSNT[Hyp]-NH2 (lactam 2-7; SMILES CC[C@H](C)[C@@H](C(=O)N1CCC[C@H]1C(=O)N[C@@H](CO)C(=O)N[C@@H](CO)C(=O)N[C@H](C(=O)N[C@@H](CCC(=O)O)C(=O)N[C@H](C(=O)NCC(=O)N[C@@H](CO)C(=O)N[C@@H](CC(N)=O)C(=O)N[C@H](C(=O)N1C[C@H](O)C[C@H]1C(N)=O)[C@@H](C)O)C(C)C)[C@@H](C)O)N(C)C(=O)[C@H](C)NC(=O)CN(C)C(=O)[C@H](Cc1ccccc1)NC(=O)[C@H](CO)NC(=O)[C@H](CO)NC(=O)[C@H](CCCNC(=N)N)NC(=O)[C@H](CCC(N)=O)NC(=O)[C@H](CC(C)C)NC(=O)[C@H](Cc1ccccc1)NC(=O)[C@H](Cc1c[nH]cn1)NC(=O)[C@H](C)NC(=O)[C@H](CC(C)C)NC(=O)[C@H](CCCNC(=N)N)NC(=O)[C@H](CCC(N)=O)NC(=O)[C@@H](NC(=O)[C@H](C)NC(=O)[C@@H]1CCCCNC(=O)C[C@H](NC(=O)[C@H](CCCNC(=N)N)NC(=O)CC[C@H](NC(=O)CCCCCCCCCCCCCCCCCCC(=O)O)C(=O)O)C(=O)NCC(=O)N[C@@H]([C@@H](C)O)C(=O)N[C@@H](C)C(=O)N[C@@H]([C@@H](C)O)C(=O)N1)[C@@H](C)O) [Compound 15]	0.017	0.056
{C20 diacid-γGlu}-RDGTAT[Orn]ATERLA[Aad]FLQRSSF[Sar]A[NMeI]LSSTEVGSNT[Hyp]-NH2 (lactam 2-7; SMILES CC[C@H](C)[C@@H](C(=O)N[C@@H](CC(C)C)C(=O)N[C@@H](CO)C(=O)N[C@@H](CO)C(=O)N[C@H](C(=O)N[C@@H](CCC(=O)O)C(=O)N[C@H](C(=O)NCC(=O)N[C@@H](CO)C(=O)N[C@@H](CC(N)=O)C(=O)N[C@H](C(=O)N1C[C@H](O)C[C@H]1C(N)=O)[C@@H](C)O)C(C)C)[C@@H](C)O)N(C)C(=O)[C@H](C)NC(=O)CN(C)C(=O)[C@H](Cc1ccccc1)NC(=O)[C@H](CO)NC(=O)[C@H](CO)NC(=O)[C@H](CCCNC(=N)N)NC(=O)[C@H](CCC(N)=O)NC(=O)[C@H](CC(C)C)NC(=O)[C@H](Cc1ccccc1)NC(=O)[C@H](CCCC(=O)O)NC(=O)[C@H](C)NC(=O)[C@H](CC(C)C)NC(=O)[C@H](CCCNC(=N)N)NC(=O)[C@H](CCC(=O)O)NC(=O)[C@@H](NC(=O)[C@H](C)NC(=O)[C@@H]1CCCNC(=O)C[C@H](NC(=O)[C@H](CCCNC(=N)N)NC(=O)CC[C@H](NC(=O)CCCCCCCCCCCCCCCCCCC(=O)O)C(=O)O)C(=O)NCC(=O)N[C@@H]([C@@H](C)O)C(=O)N[C@@H](C)C(=O)N[C@@H]([C@@H](C)O)C(=O)N1)[C@@H](C)O) [Compound 20]	0.003	0.009

Other lines, results leading:

hAMYR3 EC50 [nM] (cAMP formation, 1321N1 cells expressing hAMYR3) [1]	hCT-R EC50 [nM] (cAMP formation, 1321N1 cells expressing hCT-R) [2]	Binder
0.006	0.028	{C20 diacid-γGlu}-RDGTAT[hLys]ATERLAHFLQRSSF[Sar]A[NMeI]LSSTEVGSNT[Hyp]-NH2 (lactam 2-7; SMILES CC[C@H](C)[C@@H](C(=O)N[C@@H](CC(C)C)C(=O)N[C@@H](CO)C(=O)N[C@@H](CO)C(=O)N[C@H](C(=O)N[C@@H](CCC(=O)O)C(=O)N[C@H](C(=O)NCC(=O)N[C@@H](CO)C(=O)N[C@@H](CC(N)=O)C(=O)N[C@H](C(=O)N1C[C@H](O)C[C@H]1C(N)=O)[C@@H](C)O)C(C)C)[C@@H](C)O)N(C)C(=O)[C@H](C)NC(=O)CN(C)C(=O)[C@H](Cc1ccccc1)NC(=O)[C@H](CO)NC(=O)[C@H](CO)NC(=O)[C@H](CCCNC(=N)N)NC(=O)[C@H](CCC(N)=O)NC(=O)[C@H](CC(C)C)NC(=O)[C@H](Cc1ccccc1)NC(=O)[C@H](Cc1c[nH]cn1)NC(=O)[C@H](C)NC(=O)[C@H](CC(C)C)NC(=O)[C@H](CCCNC(=N)N)NC(=O)[C@H](CCC(=O)O)NC(=O)[C@@H](NC(=O)[C@H](C)NC(=O)[C@@H]1CCCCCNC(=O)C[C@H](NC(=O)[C@H](CCCNC(=N)N)NC(=O)CC[C@H](NC(=O)CCCCCCCCCCCCCCCCCCC(=O)O)C(=O)O)C(=O)NCC(=O)N[C@@H]([C@@H](C)O)C(=O)N[C@@H](C)C(=O)N[C@@H]([C@@H](C)O)C(=O)N1)[C@@H](C)O) [Compound 19]
0.031	0.085	{C20 diacid-γGlu}-RDGTATKATERLAHFLQRSSF[Sar]A[NMeI]LSSTEVGSNT[Hyp]-NH2 (lactam 2-7; SMILES CC[C@H](C)[C@@H](C(=O)N[C@@H](CC(C)C)C(=O)N[C@@H](CO)C(=O)N[C@@H](CO)C(=O)N[C@H](C(=O)N[C@@H](CCC(=O)O)C(=O)N[C@H](C(=O)NCC(=O)N[C@@H](CO)C(=O)N[C@@H](CC(N)=O)C(=O)N[C@H](C(=O)N1C[C@H](O)C[C@H]1C(N)=O)[C@@H](C)O)C(C)C)[C@@H](C)O)N(C)C(=O)[C@H](C)NC(=O)CN(C)C(=O)[C@H](Cc1ccccc1)NC(=O)[C@H](CO)NC(=O)[C@H](CO)NC(=O)[C@H](CCCNC(=N)N)NC(=O)[C@H](CCC(N)=O)NC(=O)[C@H](CC(C)C)NC(=O)[C@H](Cc1ccccc1)NC(=O)[C@H](Cc1c[nH]cn1)NC(=O)[C@H](C)NC(=O)[C@H](CC(C)C)NC(=O)[C@H](CCCNC(=N)N)NC(=O)[C@H](CCC(=O)O)NC(=O)[C@@H](NC(=O)[C@H](C)NC(=O)[C@@H]1CCCCNC(=O)C[C@H](NC(=O)[C@H](CCCNC(=N)N)NC(=O)CC[C@H](NC(=O)CCCCCCCCCCCCCCCCCCC(=O)O)C(=O)O)C(=O)NCC(=O)N[C@@H]([C@@H](C)O)C(=O)N[C@@H](C)C(=O)N[C@@H]([C@@H](C)O)C(=O)N1)[C@@H](C)O) [Compound 18]
0.032	0.105	{C20 diacid-γGlu}-RDGTAT[Dab]ATERLAHFLQRSSF[Sar]A[NMeI]LSSTEVGSNT[Hyp]-NH2 (lactam 2-7; SMILES CC[C@H](C)[C@@H](C(=O)N[C@@H](CC(C)C)C(=O)N[C@@H](CO)C(=O)N[C@@H](CO)C(=O)N[C@H](C(=O)N[C@@H](CCC(=O)O)C(=O)N[C@H](C(=O)NCC(=O)N[C@@H](CO)C(=O)N[C@@H](CC(N)=O)C(=O)N[C@H](C(=O)N1C[C@H](O)C[C@H]1C(N)=O)[C@@H](C)O)C(C)C)[C@@H](C)O)N(C)C(=O)[C@H](C)NC(=O)CN(C)C(=O)[C@H](Cc1ccccc1)NC(=O)[C@H](CO)NC(=O)[C@H](CO)NC(=O)[C@H](CCCNC(=N)N)NC(=O)[C@H](CCC(N)=O)NC(=O)[C@H](CC(C)C)NC(=O)[C@H](Cc1ccccc1)NC(=O)[C@H](Cc1c[nH]cn1)NC(=O)[C@H](C)NC(=O)[C@H](CC(C)C)NC(=O)[C@H](CCCNC(=N)N)NC(=O)[C@H](CCC(=O)O)NC(=O)[C@@H](NC(=O)[C@H](C)NC(=O)[C@@H]1CCNC(=O)C[C@H](NC(=O)[C@H](CCCNC(=N)N)NC(=O)CC[C@H](NC(=O)CCCCCCCCCCCCCCCCCCC(=O)O)C(=O)O)C(=O)NCC(=O)N[C@@H]([C@@H](C)O)C(=O)N[C@@H](C)C(=O)N[C@@H]([C@@H](C)O)C(=O)N1)[C@@H](C)O) [Compound 2]
